Results taken from patent US20150232562A1 (Ablynx, published 2015).

B1: 13E51/1-128 (VHH)
VHH: EVQLVESGGGLVQAGGSLRLSCAASRHTFSGYAMGWFRQAPGKEREFVAAIRWSGGITYYADSVKGRFTISSDNAKNTVYLQMNSLKPEDTALYYCARSVTYYSGSHAYTQEGGYARWGQGTQVTVSS
notes: C-term myc-His6 tag
B2: 22B1212/1-122 (VHH)
VHH: EVQLVESGGGLVQPGGSLRLSCAASGFTFSSYAMSWVRQAPGKGLEWVSAINSGGGSTSYADSVKGRFTISRDNAKNTLYLQMNSLKPEDTAVYYCAKYLSFYSDYEVYDYWGQGTQVTVSS
notes: C-term myc-His6 tag
B3: 21A111/1-124 (VHH)
VHH: EVQLVESGGGLVQAGGSLKLSCAVSGRTIVPYTMAWFRQAPGKEREFVAVTRSGGTTFYADSAKGRFTIARDDAKNTVYLQMNSLKPEDTAVYYCALATAYRTNYSSRDKYDYWGQGTQVTVSS
notes: C-term myc-His6 tag
B4: 13E81/1-124 (VHH)
VHH: EVQLVESGGGLVQAGGSLRLSCAASGGTFSVYHMAWFRQAPGKEREFVAAIRSSGGLFYALSVSGRFTISRDNAKDTMYLQMNVLKPEDTAVYYCAASPVYYIDYSSQYKYGYWGQGTQVTVSS
notes: C-term myc-His6 tag
B5: 13F121/1-119 (VHH)
VHH: EVQLVESGGGLVQAGGSLRLSCAASGRSFNDYTMGWFRQTPGKEREFVARVWWNGGSAYYADSVKGRFTISIDNAKNTVYLQMNNLTPEDTAVYYCAALYRGRSVYDDWGQGTQVTVSS
notes: C-term myc-His6 tag
B6: 14H21/1-125 (VHH)
VHH: EVQLVESGGGLVQAGGSLRLSCVRSGGYFGSYHIGWFRQAPGNEREFVAAITWNGASTSYADSVKGRFTISRSIAENTVYLQMNKVKPEDTAVYYCAARMYGSDWLPRPEDFDSWGQGTQVTVSS
notes: C-term myc-His6 tag
B7: 12D121/1-126 (VHH)
VHH: EVQLVESGGGLVQTGGSLRLSCAASGRAFSTYGMGWFRQAPGKAREFVAAISRSGTGTYYAGSMKGRFTISRDDAKNTVYLQMNSLKPEDTAVYYCAARQPYASGSHYSSTQYTYWGQGTQVTVSS
notes: C-term myc-His6 tag
B8: 14H91/1-127 (VHH)
VHH: EVQLVESGGGLVQAGGSLRLSCAASGRTFSRDVMGWFRQAPGKEREFVAAKTWSGASTYYADSVRGRFTISRDNAKNAVYLQMNSLKPEDTAVYYCAARDSSTLDSTYYVGGSYNYWGRGTQVTVSS
notes: C-term myc-His6 tag
B9: 11B31/1-124 (VHH)
VHH: EVQLVESGGGLVQAGGSLRLSCAASGGAFGVYHMGWFRQAPGKEREFVAAIRSGGTTLYEDSVKGRFTISRDNAKNTVYLRMNSLKPEDTAVYYCATQIYYRTNYYSQNAYDYWGQGTQVTVSS
notes: C-term myc-His6 tag
B10: 13G81/1-124 (VHH)
VHH: EVQLVESGGGLVQAGGSLRLSCAASGGTFGVYHMGWFRQAPGKEREFVAVIRSGGTTLYADSVKGRFTISRDDAKNTVYLQMNSLKPEDTAVYLCAAQIYYRTNYYSQNNYDYWGQGTQVTVSS
notes: C-term myc-His6 tag
B11: 21A21/1-124 (VHH)
VHH: EVQLVESGGGLVQAGGSLRLSCAASGGTFGVYHMGWFRQAPGTEREFVAVIRSGGTTLYEDSVKGRFTISRDNAKNTVYLRMNSLKPEDTAVYYCAAQIYYRTNYSSQSNYDYWGQGTQVTVSS
notes: C-term myc-His6 tag
B12: 21A53/1-124 (VHH)
VHH: EVQLVESGGGLVQAGGSLELSCAASGGAFGVYHMGWFRQAPGKEREFVAAIRSGGTTLYEDSVKGRVTISRDDAKNTVYLRMNSLKPEDTAVYYCAAQIYYRTNYYSQNVYDYWGQGTQVTVSS
notes: C-term myc-His6 tag
B13: 14H51/1-124 (VHH)
VHH: EVQLVESGGGLVQAGGSLRLSCAASGGTFGVYTMAWFRQAPGKEREFVAAIRSGATTLYEDSVKGRFTISRDDAKNTVYLRMNSLKPEDTAVYYCAAQIYYRTNYYSQNEYDYWGQGTQVTVSS
notes: C-term myc-His6 tag
B14: 12C32/1-127 (VHH)
VHH: EMQLVESGGGLVQAGGSLRLSCATSERTFSTYTMAWFRQAPGKEREFVVAIKSSDNSTSYRDSVKGRFTISRDNAKSTMYLQMNSLKPEDTAVYYCAARREYSTIYTARYPGEYVYWGQGTQVTVSS
notes: C-term myc-His6 tag
B15: 13G121/1-127 (VHH)
VHH: EVQLVESGGGLVRAGTSLRLSCADSARTFSSAAMGWFRQAPGKEREFVSAISPIGSSKYYADSVKGRFTISRDNAKNTVYLQMDSLKPEDTAVYYCAASSYGSTYYSQGRAYYYDYWGQGTQVTVSS
notes: C-term myc-His6 tag
B16: 22B41/1-124 (VHH)
VHH: EVQLVESGGGLVQPGGSLRLSCTVFGRTFSGDVIGWFRQAPGKEREFVAAISTSGGGTDSADSVKGRFTISKENAKNTVYLQMTILKPEDTAVYYCASSPYGPLYRSTHYYDYWGQGTQVTVSS
notes: C-term myc-His6 tag
B17: 11A91/1-124 (VHH)
VHH: EAQLVESGGGLVQAGGSLRLSCTASGRTYSTTMGWFRQAPGKEREFVAAIRWSGGSAFYADSVKGRFTISRDNAKNTVYLQMTSLMPEDTAVYYCADTPVYYQRYYDQNAYDYWGQGTQVTVSS
notes: C-term myc-His6 tag
B18: 22B610/1-120 (VHH)
VHH: EVQLVESGGGLVQPGGSLRLSCAASGSIFSINAMGWYRPAPGKQRELVARITSTGSTNYADSVKGRFTISRDNAKNTVYLQMNSLKPEDTAVYYCNADVSPSYGSRWYGWGQGTQVTVSS
notes: C-term myc-His6 tag
B19: 13F41/1-111 (VHH)
VHH: EVQLVESGGGLVQAGGSLRLSCVASGRTLSTTGVGWFRQAPGKERESVATIFVGGTTYYSDSVKGRFTISRDNAKNAVNLQMSNLKPEDTALYYCTIGSYRGQGTQVTVSS
notes: C-term myc-His6 tag
B20: 12C101/1-111 (VHH)
VHH: EVQLVESGGGLVQAGGSLRLSCVASGRTLSTTGVGWFRQAPGKERESVATIFVGGTTYYSDSVKGRFTISRDNARNAVNPQMNNLKPEDTAVYYCTIGSYRGQGTQVTVSS
notes: C-term myc-His6 tag
B21: 13F42/1-111 (VHH)
VHH: EVQLVESGGGLVQAGGSLRLSCVASGRTLSTTGVGWFRQAPGKGRESVATIFVGGTTYYSDSVKGRFTISRDNAKNAVNLQMSNLKPEDTALHYCTIGSYRGQGTQVTVSS
notes: C-term myc-His6 tag
B22: 11A31/1-120 (VHH)
VHH: EVQLVESGGGLVQAGGSLRLSCAASGGTFSSGVMAWFRQSPGEEREFLALITRNGETKKTADSVKGRFTISRDNAKNGVSLQMDSLKAEDTAVYYCASDPTYGSGRWTYWGQGTQVTVSS
notes: C-term myc-His6 tag
B23: 12D71/1-125 (VHH)
VHH: EVQLVESGGGLVQAGGSLGLSCAASGRTVSTMGWFRQAPGKEREFVTAITWSGDSTNFADSVKGRFTISRDSAKDTVYLQMNNLKPEDTAVYYCAATTYYSGSYISTLSTSYNYWGQGTQVTVSS
notes: C-term myc-His6 tag
B24: 13G72/1-118 (VHH)
VHH: EVQLVESGGGLVQAGGSLRLSCAASGRAFSSYAMGWFRQAPGKERDFVAAITSSGSTNYADSVKGRFTISRDNAKNTVYLQMNSLKPEDTAVYYCAAKYYSYYAYDYWGQGTQVTVSS
notes: C-term myc-His6 tag

biological target: T1, recombinant human ErbB2/Fc chimera (human, UniProt P04626 23-652); experiment: ELISA, coated ErbB2/Fc
T1 construct: bought from R&D Systems; also called rhErbB2-Fc; rhErb2-Fc; Fc part of the bought chimera not given; not described

Binding result, binds:
B1
B2
B3
B4
B5
B6
B7
B8
B9
B10
B11
B12
B13
B14
B15
B16
B17
B18
B19
B20
B21
B22
B23
B24
